The target in the assay is MBP-OsIAA10 (rice).

Some results are limits rather than exact numbers.

B1: RDV P2 in RDV-infected rice plants (natural protein)
chain: MAYPNDVRNVWDVYNVFRDVPNREHLIRDIRNGLVTVRNLTNMLTNMERDDQLIIAQLSNMMKSLSIGVEKAQNELSKLKTTDADRAAVLAAYQTSVLNIERNTMLLTGYFKQLVLDLTGYVGASVYPILPFMITGDQSMMVDSIKINMKNVFDDKHEQEIVLPIHPACFVSTITEDTSSVVYADGDELYSVHVRHATMTMYVNVLGETVETRQLSMIGDSIVPDDFAPSLLILRFSQDSVGEVFYLSHDNMKKFLGYGLEYTDKYSIFDVTRRVSTTRNKIPDGFCSVDGVPYLDGWFIYQPSGISADSNICAIYNSYVLDTLRYITECEVDTLRSVYDQTSSTAFSKTDVLTSSLLTMQSNISALSAATPQLANDVITFDSTDLLSLGTVLTVSNEFTADDTILSTSLAGHCQVDYSEGSPQDKSMSISVSCDSSQLASSTVHSYSADILGHGLKGDRNMNLMINVPGLMNPQKVTVDYVYSDGYKLNFASVVAPGAPFWINATLQLSVSPSAHNMLSKLTPLDNDACPGLKAQANTPVLVSMTINLDDATPALGGEVIQNCVFKIHHGDDVYSFVTDFDVISYTSTSGTNCLKLISSVDITSQLPSDMVIYVMNGSPDAAFISGDSVNMSSVDWHQSTSQTVGNYVYTTMKAYWNVTSYDVEARPYTTYVPGKVNFTAVEHADVFVDDYNTGVNSYVIVNSRIYYKGTPLYIEVPSGSFIKVSYFTSPLKNPTVDTYNAEISRNSAYLIKANASLDSVAAMLNNISNRIDAMERLMEPTRAQQIAGVVSSIGGVISLGMPLLGAIVVTIGTIISIADPDKQGIDYHSVANAFMSWCQYAAVCRYEYGLLKRGDEKLDVLSFMPKRVVSDFKNKPDVISLPELGESVLRGSSTDYLDTGINIIYNDMQLLGQGKLSDWLNKTVSKVENNAANFFERNLDKSLANKEVLPMHARVEITQTEKIGDVYRTTILYTGINEGSYLGGDVFASRLGDKNILRMNGFESGPGRFKAIVESTTEVGNFRVVDWTVSGMSRYEIYAAAGEVYPSKDPSHADVQLLYESIVRDLTTRDGSFVLKHHDVLLLPGQLDAFEELIIKNASNYQYAFIGSNCSKLCA
As for B1, the half-life of MBP-OsIAA10 in the cell-free degradation assay, RDV-infected against mock-inoculated rice extracts is > 2 fold.

The values are drawn from paper PMC5015840.
